According to the supplement of paper PMC7125110:
± gives the standard error. Variants at the floor of the assay were thinned out.

B1: glmS ribozyme (parent)
chain: AUAAAAGCGCCAGAACUACAGAAAUGUAGUUGACGAGGAGGAGGUUUAUCGAAUUUUCGGCGGAUGCCUCCAAA

Columns and labels:
Details in all cases: with glucosamine-6-phosphate
[1] = variants of: B1; experiment: self-cleavage kobs at 40 uM GlcN6P; higher = faster cleavage; RNA array
How it was run: (§1)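 Barcoded glmS ribozyme variants on sequenced MiSeq chips were transcribed in situ by E. coli RNA polymerase and tracked through a hybridised Cy3 probe at 37 °C. Glucosamine-6-phosphate (40 μM to 10 mM) in HEPES/KCl/Mg(OAc)2 buffer was flowed in, and tiles were imaged over ~14 h. Signals were normalised to baseline and to non-cleaving reference variants; per-tile medians were fit to one- or two-exponential decays to give kobs. kcat and KM came from weighted Michaelis–Menten fits across concentrations.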

[2] = variants of: B1; experiment: self-cleavage kobs at 640 uM GlcN6P; higher = faster cleavage; RNA array
How it was run: as §1

[3] = variants of: B1; experiment: self-cleavage kobs at 2500 uM GlcN6P; higher = faster cleavage; RNA array
How it was run: as §1

[4] = variants of: B1; experiment: self-cleavage kobs at 160 uM GlcN6P; higher = faster cleavage; RNA array
How it was run: as §1

[5] = variants of: B1; experiment: self-cleavage kobs at 10000 uM GlcN6P; higher = faster cleavage; RNA array
How it was run: as §1

G13A A53U
self-cleavage kobs at 40 uM GlcN6P [1]: < 1e-05 s⁻¹
self-cleavage kobs at 640 uM GlcN6P [2]: 7.57e-05 ± 2.4e-05 s⁻¹
self-cleavage kobs at 2500 uM GlcN6P [3]: 0.000174 ± 4.1e-05 s⁻¹

A14G G32A U49A
self-cleavage kobs at 40 uM GlcN6P [1]: < 1e-05 s⁻¹

A14U G51A U57C G60U A64G U65G
self-cleavage kobs at 40 uM GlcN6P [1]: < 1e-05 s⁻¹

G13A G44A
self-cleavage kobs at 40 uM GlcN6P [1]: < 1e-05 s⁻¹

G13A U46G
self-cleavage kobs at 40 uM GlcN6P [1]: < 1e-05 s⁻¹
self-cleavage kobs at 160 uM GlcN6P [4]: < 1e-05 s⁻¹
self-cleavage kobs at 10000 uM GlcN6P [5]: 0.00013 ± 3e-05 s⁻¹

G13A G59U
self-cleavage kobs at 40 uM GlcN6P [1]: < 1e-05 s⁻¹

G13C U31A G40U
self-cleavage kobs at 40 uM GlcN6P [1]: < 1e-05 s⁻¹
self-cleavage kobs at 640 uM GlcN6P [2]: < 1e-05 s⁻¹

A12G C50U
self-cleavage kobs at 40 uM GlcN6P [1]: < 1e-05 s⁻¹
self-cleavage kobs at 160 uM GlcN6P [4]: < 1e-05 s⁻¹
self-cleavage kobs at 10000 uM GlcN6P [5]: < 1e-05 s⁻¹

A14U U49A
self-cleavage kobs at 40 uM GlcN6P [1]: < 1e-05 s⁻¹
self-cleavage kobs at 160 uM GlcN6P [4]: < 1e-05 s⁻¹
self-cleavage kobs at 640 uM GlcN6P [2]: < 1e-05 s⁻¹

A15C C16G G41A
self-cleavage kobs at 40 uM GlcN6P [1]: < 1e-05 s⁻¹

A14G G51C
self-cleavage kobs at 40 uM GlcN6P [1]: < 1e-05 s⁻¹
self-cleavage kobs at 640 uM GlcN6P [2]: < 1e-05 s⁻¹
self-cleavage kobs at 10000 uM GlcN6P [5]: < 1e-05 s⁻¹

A15C G37U G40C U55G U65C U69C
self-cleavage kobs at 40 uM GlcN6P [1]: < 1e-05 s⁻¹

A12U C67A
self-cleavage kobs at 40 uM GlcN6P [1]: 0.000743 ± 7.6e-05 s⁻¹
self-cleavage kobs at 160 uM GlcN6P [4]: 0.000983 ± 0.00027 s⁻¹
self-cleavage kobs at 640 uM GlcN6P [2]: 0.00261 ± 0.00048 s⁻¹
self-cleavage kobs at 2500 uM GlcN6P [3]: 0.0101 ± 0.0038 s⁻¹

A14G U54G G66A
self-cleavage kobs at 40 uM GlcN6P [1]: 0.000476 ± 0.00011 s⁻¹
self-cleavage kobs at 10000 uM GlcN6P [5]: 0.0163 ± 0.0061 s⁻¹

A14G A15U G29A
self-cleavage kobs at 40 uM GlcN6P [1]: 3.49e-05 ± 1.3e-05 s⁻¹
self-cleavage kobs at 10000 uM GlcN6P [5]: 0.00133 ± 0.00028 s⁻¹

A14C C34A
self-cleavage kobs at 40 uM GlcN6P [1]: < 1e-05 s⁻¹
self-cleavage kobs at 160 uM GlcN6P [4]: < 1e-05 s⁻¹
self-cleavage kobs at 640 uM GlcN6P [2]: < 1e-05 s⁻¹
self-cleavage kobs at 10000 uM GlcN6P [5]: < 1e-05 s⁻¹

G13C U30G U54G G63U C67U
self-cleavage kobs at 40 uM GlcN6P [1]: < 1e-05 s⁻¹
self-cleavage kobs at 10000 uM GlcN6P [5]: < 1e-05 s⁻¹

A15C A33U
self-cleavage kobs at 40 uM GlcN6P [1]: < 1e-05 s⁻¹
self-cleavage kobs at 160 uM GlcN6P [4]: < 1e-05 s⁻¹

A14G A39C G66A
self-cleavage kobs at 40 uM GlcN6P [1]: 9.51e-05 ± 2.2e-05 s⁻¹
self-cleavage kobs at 2500 uM GlcN6P [3]: 0.00447 ± 0.00085 s⁻¹
self-cleavage kobs at 10000 uM GlcN6P [5]: 0.00527 ± 0.0016 s⁻¹

G13C G63A
self-cleavage kobs at 40 uM GlcN6P [1]: < 1e-05 s⁻¹
self-cleavage kobs at 640 uM GlcN6P [2]: < 1e-05 s⁻¹
self-cleavage kobs at 2500 uM GlcN6P [3]: < 1e-05 s⁻¹

G13C G63U
self-cleavage kobs at 40 uM GlcN6P [1]: < 1e-05 s⁻¹
self-cleavage kobs at 2500 uM GlcN6P [3]: < 1e-05 s⁻¹

A14G U54C U69C
self-cleavage kobs at 40 uM GlcN6P [1]: 0.000416 ± 9.9e-05 s⁻¹
self-cleavage kobs at 640 uM GlcN6P [2]: 0.0011 ± 0.00044 s⁻¹
self-cleavage kobs at 2500 uM GlcN6P [3]: 0.000161 ± 5.8e-05 s⁻¹
self-cleavage kobs at 10000 uM GlcN6P [5]: 0.0047 ± 0.0013 s⁻¹

A14G U31A
self-cleavage kobs at 40 uM GlcN6P [1]: 0.00248 ± 0.00049 s⁻¹
self-cleavage kobs at 160 uM GlcN6P [4]: 0.0027 ± 0.00061 s⁻¹
self-cleavage kobs at 640 uM GlcN6P [2]: 0.00935 ± 0.0021 s⁻¹
self-cleavage kobs at 2500 uM GlcN6P [3]: 0.0146 ± 0.006 s⁻¹
self-cleavage kobs at 10000 uM GlcN6P [5]: 0.0669 ± 0.024 s⁻¹

A15C C61U U69G
self-cleavage kobs at 40 uM GlcN6P [1]: < 1e-05 s⁻¹
self-cleavage kobs at 10000 uM GlcN6P [5]: < 1e-05 s⁻¹

G13A A15U A33U G37U U46C U49A
self-cleavage kobs at 40 uM GlcN6P [1]: < 1e-05 s⁻¹
self-cleavage kobs at 2500 uM GlcN6P [3]: < 1e-05 s⁻¹

A14U C50G C58G
self-cleavage kobs at 40 uM GlcN6P [1]: 0.000124 ± 3.9e-05 s⁻¹
self-cleavage kobs at 10000 uM GlcN6P [5]: 0.000108 ± 2.7e-05 s⁻¹
